Assay: yeast display, Sf9 membrane polyspecificity reagent, FACS + sequencing; frameworks hold sequencing errors
In short: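 In a synthetic yeast display library (Saccharomyces cerevisiae BJ5465), nanobody expression was induced with galactose for 36–48 hours. FACS gates were set low and high (top ~1%) using anti-HA fluorescence for expression and streptavidin fluorescence for binding of the Sf9 membrane reagent. Each polyreactivity label is drawn from the gate of origin.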

Sequence | polyreactivity (PSR sort gate)
QVQLVDSGGGLVQAGGSLRLSCAASGIIFSVYAMGWYRQAPGKERELVAAITYSGGSTYYADSVKGRFTISRDNAKNTVYLQMNSLKPEDTAVYYCNAYRYNALPWRYVGYDYWGQGTQVTVSS | low polyreactivity
QVQLVESGGGLVQAGGSLRLSCAASGFIYRVYGMGWYRQAPVKERELLAAISGRGGSTYYADSVKGRFTISRDNANNTVYLQMHSLKPEDTAVYYCYTLDIRTYSKYDYWGQGTQVTVSS | high polyreactivity
QVQLVESGGGLVQAGGSLRLSCASSGRIFNGNTMGWYRQAPGKERELVAGITGSSGSTYYADSVKGRFTISRDNANNSVYLPMNSLKPEDTGVYYCAAGRRYRCVGYGYWGQGTQVTVSS | high polyreactivity
QVQLVESGGGLVQAGGSLRLSCAASGSIFNRYAMGWYRQAPGKERELVAAISSTGSTYYADSVKGRFTISRDNAKNTVYLQMNSLKPEDTAVYYCNADATHDWLRVDTYEYWGQGTQVTVSS | low polyreactivity
QVQLVESGGGLVQAGGSLRISCAASGFIFKVYAMGWYRQAPGKERELVAAITSSGGSTYYADSVKGRFTISRDNAKNTVYLQMNSLIPEDTAVYYCAAQFPGVYYYIYDYWGQGTQVTVSS | high polyreactivity
QVQLVESGGGLVQAGGSLRLSCAASGLTFAFYAMGWYRQAPGKERELVAAISGSGGSTNYADSVKGRFTISRDNAKNTVYLQMNSLKPEDTAVYYCAATYTYSWAYGYWGQGTQVTVSS | high polyreactivity
QVQLVESGGGLVQAGGSLRLSCAASGITFTFYAMGWYRQAPGKERELVATIDSGGSTNYADSVKGRFTISRDNAKNTVYLQMNSLKPEDTEVYYCAADGVWYYYDMDYWGQGTQVTVSS | low polyreactivity
QVQRVESGGGLVQAGGSLRLSCAASGSIIAGYPMGWSRQAPGKERELVAGIRRGGSTNYADSVKGRFTISRDNAKKTVYLQMNSLKPEDTAVYYCNAQRTRSYVLRTFDYWGQGTQVTVSS | high polyreactivity
QVQLVESGGGLVQAGGSLRLSCAASGRTFISIVMAWYRQAPGKERELVAAIRSSGRTYYADSVKGRFTISRDNAKITVYLQINSLKPVDTAVYYCAAPGGLLGSGYWGQGTLVTVSS | low polyreactivity
QVQLVESGVGLVQAGGSLRLICAASGRTFYWYAMGWYRQAPRKERELVATITRGGRTYYADSVKGRFTISRDNAKNTVYLQMNSLKPEDTAVYDCATVSIAGPRYDYWGQGTQVTVSS | high polyreactivity
QVQLVESGGALVQAGGSHRLSCAASGSTFATYAMGWYRQAPGNEREFVAVITRGGRTYYADSVKGRFTISRDNAKITVYLQMNSLKPEDTAVYYCAAGSGNFVTRYRYGYWGQGTQVTVSS | high polyreactivity
QVQLVESGGGLVQAGGSLRLSCAASGSTFASNVMGWYRQAPGKERELVAAISRSGGNTYYADSVKGRFTISRDIAKNTVYLQMNSLKPEDTAVYYCAKYPFTRISYDYWGQGTLVTVSS | high polyreactivity
QVQLQESGGGLVQAGGSLRLSCAASGSIFKGVDMGLYRQAPAKEREFVATIGEGGNTYYADSVKGRFTISRDNAKNTVYLQMNSLKPEDTAVYFYAVVLGTSYRYTYWGQGTQVTVSS | low polyreactivity
QDQRVESGGGLVQAGGSLRLSCAASGRTISVYAMGWYRQAPGKERELVAAIRTSGGITYYADSVKGRFTISRDNAKNTVYLQMNSLKPEDTAVYYCAAETFRHDSYTRYYYWGQGTQVTVSS | high polyreactivity
QVQLVESGGGLVQAGGSLRLSCAASGSTFRVNDMGWYRQAPGKESEFVAGISWSGGSTYYADSVKGRFTISRDNAKNTVYLQMNTLKPEETAVYYCAADGYGQGNNRNYNYGGQGTQVTVSS | low polyreactivity
QVQLVESGGGLVQAGGSLRLSCAASGITFRNYAMVWSRQAPGKERELVADITTGGSTYADSVKGRFTISRDNAKNTVYLQMISLNPEDTAVYYCAADRDFRTPRLYYWGQGTQVTVSS | low polyreactivity

Sequence | polyreactivity (PSR sort gate)
QVQLVESGGGLVQAGGSLRLSCAASGRIFSFYAMGWYRQAPGKERELVAAITYTDGSTYADSVKGRFTISRDNAKNTVYLQMNSLKPEDTAVYYCATRYRWTPYDYWGQGTQVTVSS | low polyreactivity
QVQLVEKGGGLVQAGGSLRLSCAASGSTFRNNAMGRYREAPGKERELVAAIPYSGDSTSYADSVKGRFTISRDNAKNTVYLQMNSLKPEDTAVYYCNAAIDGIYLGSYTAYGYDSWGQGTQVTVSS | low polyreactivity
QVQLVESGGGLVQAGGSLRLSCAASGSTFGGNDMGWYRQAPGKERELVAAISSGTSTNYADSVKGRFTISRDNAKNTVYLQMNSLKPEDTAVYYCAAVYWVLWQGSTYGYWGQGTQVTVSS | low polyreactivity
QVQLVESGGGLVQEGGSLRLSCAASGRIFYFYAMGRYRQAPGKERELVADIDWSGDSTYYADSVKGRFTISRDNAKITVYLQMNSLIPEDTAVYYCNAAYYYYSTSYTYDYWGQGTQVTVSS | low polyreactivity
QVQLVESGGGLVQAGGSLRLSCAASGSIFVYYTMGWYRQAPGKVRELVATITFRGNTYYADSVKGRFTISRDNAKNTVYLQMNSLKPEDTAVSYCAATRYGHRYYYRPYEYWGQGTQVTVSS | high polyreactivity
QVQLVESGGGLVQAGGSLRLSCAASGSTFSRNAMGWYRQAPGKERELVAAITQSGGRTYYADSVKGRFTISRDNAKNTVYLQMNSLKPEDTAVYYCNARGRRSGYISGYDYWGQGTQVTVSS | high polyreactivity
QVQLVESGGGLVQAGGSLRLSCAASGRIFGYYAMGWYRQAPGKERELVAAITRNGGSTYYADSVKGRFTISRDNAKNTVYLQMNSLKPEDTAVYYCAATKGGGRGYWGQGTQLTVSS | high polyreactivity
QVQLVESGGGLVQAGGSLRLSCAASGRNFPRNVMGWYRQAPGKERELVAAITGSGSSTYYADSVKGRFTISRDIEKNTVYLQMNSLQPEDTAVYYCATIWRFKLGDYWGQGTQVTVSS | high polyreactivity
QVQLVESGGGLVQAGGSLRLSCAASGSTFVRNDMGWYRQAPGKERELVAAINGDGRTYYADSVKGRFTISRDNAKNTVYLQLNSLKPEDTAVYYCAADGYLLYVQHPNGRRYDYWGQGTQVTVSS | low polyreactivity
QVQLVESGGGLVQAGGSLRLSCAASGNTFRINAMGWYRQAPGKERELVAAISRSTGRTYYADSVKGRFTISRDNAKNTVYLQMNSLKPEDTAVYYCAAGYTGQEHDYWGLGTQVTVSS | high polyreactivity
QVQLVESGGGLVQAGGSLRLSCAASGRTFVYYAMGWYRQAPGTERELVAAISTGGSTNYADSVKGRFTISRDNAKNSVYLQMNSLKPEDTAVYYCAAQYYISISKYDYWGQGTQVTVSS | low polyreactivity
QVQLVESGGGLVQAGGSLRLSCAASGFIFTGYAMGWYRQAPGKERELVAAITRNGGSTYYADSVKGRFTISRDNAKNSVYLQMNSLKPEDTAVYYCAARGNRVSPEYYYWGQGTQVTVSS | high polyreactivity
QVQLVESGAALVQAGGSLRLSCAASGFIIYDYMGWYRQAPGKERELVAVISYSGSSTYYADSVKGRFTISRDNAKNTDYLQMNSLKPEDTAVYYCAARNVNGWDYDYWGLGTQVTVSS | low polyreactivity
QVQHVESGGGLVQAGGSLRLSCAASGFIFYIYAMGWYRQAPGKERELVAAITSGGSTYYADSVKGRFTISRDNAKNTVYFQMNSLKPEDTAVFYCNRRSGHVHEYDYWGQGTQVTVSS | low polyreactivity
QVQLVESGGGLVQAGGSLSLSCAASGITLYRYVMGWYRQAPWKERELVADNTGRGTSTYYADSVKGRFTISRDNAKNTVYFQLNSLKPEDTAVYYCNAEYTKTGALVIPYTYYYAEDYWGQATQVTVSS | low polyreactivity
QVQLVESGGGLFQAGGSLRLSCAASGIIFAVYDMGWYRQAPGKERELVAAISWSGGSTYYADSVKGRFTISRDNAKNTVYLQMNSLKPEDTAVYYCNRVRYSRLGDYWGQGSQVTVSS | high polyreactivity

Source: the nanobody polyreactivity screen of Harvey et al. (2022)
